Literature values as cited in PMC4760235.

Biological target: CD161 (Homo sapiens) (UniProt Q12918)
Chain of UniProt Q12918 (Q12918 whole entry): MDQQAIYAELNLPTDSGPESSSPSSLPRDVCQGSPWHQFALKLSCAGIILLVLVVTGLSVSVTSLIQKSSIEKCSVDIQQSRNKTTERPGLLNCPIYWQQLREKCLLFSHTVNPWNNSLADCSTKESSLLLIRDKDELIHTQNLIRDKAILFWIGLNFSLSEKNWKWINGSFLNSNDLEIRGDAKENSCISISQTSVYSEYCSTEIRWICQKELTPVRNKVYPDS

In the case of LLT1 (from UniProt Q9UHP7), the Kd is given as 48 µM.
